Among the data in PMC7721647, “The Human RNA Helicase DDX21 Presents a Dimerization Interface Necessary for Helicase Activity” (iScience, 2020) are Kd values, retold here.

In one series the target is T1, DDX21ΔN monomer (human, UniProt Q9NR30 186-783, L611R;A612R;A613R;A614R;L615R;A616R).
T1 sequence: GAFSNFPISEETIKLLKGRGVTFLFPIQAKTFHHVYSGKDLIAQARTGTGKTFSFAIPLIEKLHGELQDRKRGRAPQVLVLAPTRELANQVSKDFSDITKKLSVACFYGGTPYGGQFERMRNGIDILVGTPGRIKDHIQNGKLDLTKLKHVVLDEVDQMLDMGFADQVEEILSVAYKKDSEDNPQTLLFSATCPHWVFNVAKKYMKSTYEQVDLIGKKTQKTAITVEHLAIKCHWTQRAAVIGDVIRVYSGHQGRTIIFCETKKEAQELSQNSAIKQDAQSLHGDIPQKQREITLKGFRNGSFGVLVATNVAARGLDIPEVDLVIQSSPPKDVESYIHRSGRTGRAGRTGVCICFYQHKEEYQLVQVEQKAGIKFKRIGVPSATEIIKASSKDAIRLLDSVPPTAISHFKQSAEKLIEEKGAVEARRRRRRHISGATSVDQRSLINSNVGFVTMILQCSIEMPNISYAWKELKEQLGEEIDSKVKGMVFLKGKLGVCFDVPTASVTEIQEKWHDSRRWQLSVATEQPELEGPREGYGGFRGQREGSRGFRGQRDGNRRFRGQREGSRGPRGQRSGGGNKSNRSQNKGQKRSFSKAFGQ
The series can be described thus: fluorescence polarization; FP: 50 mM Tris pH 7.5, 50 mM KCl, 5 mM MgCl2, no ATP; Hill-slope fit; temperature not given in the material. As to conditions: protein: recombinant. Background: Polarisation of emitted light reports the rotation of a fluorescent probe.

Another series has as its target T2, DDX21Fl monomer (human, UniProt Q9NR30 1-783, L611R;A612R;A613R;A614R;L615R;A616R).
T2 sequence: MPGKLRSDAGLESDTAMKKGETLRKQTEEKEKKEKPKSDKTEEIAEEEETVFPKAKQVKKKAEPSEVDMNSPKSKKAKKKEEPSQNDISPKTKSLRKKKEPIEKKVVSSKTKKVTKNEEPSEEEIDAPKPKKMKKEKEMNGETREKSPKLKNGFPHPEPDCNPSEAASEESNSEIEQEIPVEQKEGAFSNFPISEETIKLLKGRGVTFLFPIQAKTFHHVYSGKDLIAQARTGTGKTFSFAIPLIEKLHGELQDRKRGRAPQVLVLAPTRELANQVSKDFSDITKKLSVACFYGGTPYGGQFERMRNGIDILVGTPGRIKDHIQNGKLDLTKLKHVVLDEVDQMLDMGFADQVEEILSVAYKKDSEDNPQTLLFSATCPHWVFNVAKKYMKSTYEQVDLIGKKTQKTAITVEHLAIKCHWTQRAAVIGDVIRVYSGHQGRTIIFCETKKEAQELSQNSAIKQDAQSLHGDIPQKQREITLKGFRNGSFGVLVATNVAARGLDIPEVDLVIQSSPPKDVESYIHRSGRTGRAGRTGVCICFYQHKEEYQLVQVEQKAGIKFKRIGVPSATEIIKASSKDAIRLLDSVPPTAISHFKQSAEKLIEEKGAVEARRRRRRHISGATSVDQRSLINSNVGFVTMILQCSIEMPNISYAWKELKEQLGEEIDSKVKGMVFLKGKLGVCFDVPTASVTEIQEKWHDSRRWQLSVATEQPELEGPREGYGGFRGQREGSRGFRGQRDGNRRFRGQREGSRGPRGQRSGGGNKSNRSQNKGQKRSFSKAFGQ
The series is described as above. The settings on record: protein: recombinant.

In a further series the target is T3, DDX21Fl (human, UniProt Q9NR30 1-783).
T3 sequence: T2 sequence with R611L, R612A, R613A, R614A, R615L, R616A
Nature of the series: fluorescence polarization; no ATP; FP: 50 mM Tris pH 7.5, 50 mM KCl, 5 mM MgCl2, no ATP; Hill-slope fit; temperature not given in the material. The settings on record: protein: recombinant, tags: N-terminal Trx-His6, cut with thrombin, chain copies: 2.

Setting [1] is: label: 5'-FAM on 15-mer, 3' overhang 15 nt.

In general, Kd refers to the constant that tells how readily two partners part at equilibrium.

Numbering of substitutions follows the chain as printed.

Consider GUUUCGGAUCGACGC (ssRNA) [15-mer ssRNA], for which the dissociation constant Kd with DDX21ΔN monomer (label: 5'-FAM, single strand) came out at 24.9 ± 1.7 nM; with DDX21Fl monomer (label: 5'-FAM, single strand), 29.9 ± 2.7 nM; with DDX21Fl (label: 5'-FAM, single strand), 30.7 ± 2.8 nM.

B1: dsRNA 15/30mer 3' overhang (dsRNA)
RNA 1: GUUUCGGAUCGACGC
RNA 2: GCGUCGAUCCGAAACUAUACUUAAUUUUAA
Turning to B1, the Kd worked out at 122 ± 19.3 nM in the series with DDX21ΔN monomer (setting [1]), 13.9 ± 2.5 nM with DDX21Fl monomer (setting [1]) and 10.2 ± 0.4 nM with DDX21Fl (setting [1]).
